2 molecules from patent publication US20110098218A1 (AGENCY FOR SCIENCE TECHNOLOGY AND RESEARCH, published 2011) can be followed below.

The target in the assay is T1, Flag-tagged mouse STAT3 (pXJ40-Flag-mSTAT3) (mouse, UniProt P42227 1-770, limits assumed, phosphorylated after leptin treatment (phospho-STAT3); the site is not given).
T1 construct: also called phospho-STAT3; Flag-tagged STAT3; not shown: Flag tag
Kind of assay: coimmunoprecipitation.

T1 sequence (P42227 whole entry): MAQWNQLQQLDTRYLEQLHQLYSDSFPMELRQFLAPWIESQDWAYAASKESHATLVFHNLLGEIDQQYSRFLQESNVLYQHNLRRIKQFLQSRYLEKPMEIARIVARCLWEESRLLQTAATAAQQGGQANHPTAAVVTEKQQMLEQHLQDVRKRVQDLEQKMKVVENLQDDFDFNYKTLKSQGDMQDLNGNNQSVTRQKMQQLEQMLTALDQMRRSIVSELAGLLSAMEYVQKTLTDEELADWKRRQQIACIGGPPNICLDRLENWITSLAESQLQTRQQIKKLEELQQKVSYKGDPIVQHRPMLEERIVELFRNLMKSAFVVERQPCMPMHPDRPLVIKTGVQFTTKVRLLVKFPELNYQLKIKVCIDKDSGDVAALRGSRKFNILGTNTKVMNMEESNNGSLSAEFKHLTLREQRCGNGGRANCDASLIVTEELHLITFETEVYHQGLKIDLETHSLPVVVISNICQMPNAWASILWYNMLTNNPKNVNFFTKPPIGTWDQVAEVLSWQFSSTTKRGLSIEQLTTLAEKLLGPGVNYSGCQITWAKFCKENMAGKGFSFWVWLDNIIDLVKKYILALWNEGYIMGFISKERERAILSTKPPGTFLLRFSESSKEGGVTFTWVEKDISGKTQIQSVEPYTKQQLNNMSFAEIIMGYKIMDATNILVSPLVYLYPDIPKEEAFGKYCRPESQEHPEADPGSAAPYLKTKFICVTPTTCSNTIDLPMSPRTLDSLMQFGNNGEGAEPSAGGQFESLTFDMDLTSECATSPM

B1: FoxO1^(1-123) (other)
chain: MAEAPQVVETDPDFEPLPRQRSCTWPLPRPEFNQSNSTTSSPAPSGGAAANPDAAASLASASAVSTDFMSNLSLLEESEDFARAPGCVAVAAAAAASRGLCGDFQGPEAGCVHPAPPQPPPTG
In the case of B1, the binding result is “no binding”.

B2: FoxO1^(1-123)-(168-652) (other, UniProt Q9R1E0 1-123, looked up)
chain: MAEAPQVVETDPDFEPLPRQRSCTWPLPRPEFNQSNSTTSSPAPSGGAAANPDAAASLASASAVSTDFMSNLSLLEESEDFARAPGCVAVAAAAAASRGLCGDFQGPEAGCVHPAPPQPPPTGKAIESSAEKRLTLSQIYEWMVKSVPYFKDKGDSNSSAGWKNSIRHNLSLHSKFIRVQNEGTGKSSWWMLNPEGGKSGKSPRRRAASMDNNSKFAKSRGRAAKKKASLQSGQEGPGDSPGSQFSKWPASPGSHSNDDFDNWSTFRPRTSSNASTISGRLSPIMTEQDDLGDGDVHSLVYPPSAAKMASTLPSLSEISNPENMENLLDNLNLLSSPTSLTVSTQSSPGSMMQQTPCYSFAPPNTSLNSPSPNYSKYTYGQSSMSPLPQMPMQTLQDSKSSYGGLNQYNCAPGLLKELLTSDSPPHNDIMSPVDPGVAQPNSRVLGQNVMMGPNSVMPAYGSQASHNKMMNPSSHTHPGHAQQTASVNGRTLPHVVNTMPHTSAMNRLTPVKTPLQVPLSHPMQMSALGSYSSVSSCNGYGRMGVLHQEKLPSDLDGMFIERLDCDMESIIRNDLMDGDTLDFNFDNVLPNQSFPHSVKTTTHSWVSG
In the case of B2, the binding result is listed as “no binding”.
